What all share (conditions): both partners purified
The target of experiment [1] is T1, Human Cdc42 GTPase, wild type, residues 1-179 (human, UniProt P60953 1-179).
T1 construct: four extra residues (Gly-Ser-Phe-Thr) from the expression vector left at the N-terminus of Cdc42; human Cdc42, residues 1-179; also called Cdc42WT; wild-type Cdc42; source: E. coli Rosetta, purified (HisTrap, TEV cleavage, second HisTrap, Superdex 75); not shown: His6, N-terminal, cleaved
Put plainly: other fluorescence titration; Kd from the fluorescence difference before mixing and at equilibrium at seven [GBD] values on the stopped-flow instrument; 0.1 μM mantGppNHp·Cdc42; 50 mM sodium phosphate pH 7.0, 5 mM MgCl2, 1 mM TECP, 25 °C; kd deduced as the product of Kd and ka.

Experiment [2] addresses T2, Human Cdc42 (residues 1-179) with Glu31, Asn39, Glu62, Asp63, Asp65 and Gln74 all substituted by Lys (human, UniProt P60953 1-179, Glu31 substituted by Lys | Asn39 substituted by Lys | Glu62 substituted by Lys …).
T2 construct: four extra residues (Gly-Ser-Phe-Thr) from the expression vector left at the N-terminus of Cdc42; human Cdc42, residues 1-179, with the 6K mutations around the subsite for GBD Csub; Loaded with mantGppNHp or GppNHp; also called Cdc42_(6K); source: E. coli Rosetta, purified (HisTrap, TEV cleavage, second HisTrap, Superdex 75); not shown: His6, N-terminal, cleaved
Described as above.

The target of experiment [3] is T1, Human Cdc42 GTPase, wild type, residues …. Briefly: stopped-flow fluorescence; ka from kobs against [GBD]; 0.1 μM mantGppNHp·Cdc42 in one syringe, GBD in excess in the second; 50 mM sodium phosphate pH 7.0, 5 mM MgCl2, 1 mM TECP, 25 °C.
For experiment [4], the target named is T2, Human Cdc42 (residues 1-179) with …. The description is as above.
In experiment [5] the target is T1, Human Cdc42 GTPase, wild type, residues …. Briefly: stopped-flow fluorescence; kd measured directly by displacement: 0.1 μM mantGppNHp·Cdc42 and 1 μM GBD mixed with 20 μM GppNHp·Cdc42; 50 mM sodium phosphate pH 7.0, 5 mM MgCl2, 1 mM TECP, 25 °C.
The target is the same in experiment [6]. Briefly: stopped-flow fluorescence; ka from kobs against [GBD] as in buffer, with 1 M urea added.
Experiment [7] deals with T2, Human Cdc42 (residues 1-179) with …. Described as above.
For experiment [8] the target is unchanged. Briefly: stopped-flow fluorescence; ka from kobs against [GBD] as in buffer, with 2 M urea added.

This note sets out measurements from publication PMC6467919, “Designed Mutations Alter the Binding Pathways of an Intrinsically Disordered Protein” (Scientific Reports, 2019).

The kon is the rate constant with which the complex forms. Higher therefore signals fast association. By koff is commonly meant a measure of how fast the partners let go of each other. Higher therefore signals a short-lived complex. One may read the Kd as the equilibrium constant for the complex coming apart. Low values mean a tighter complex, high ones a looser complex.

Changes are numbered by the printed parent chain.

T1 sequence (P60953 other isoform, or with tags, fused parts or gaps): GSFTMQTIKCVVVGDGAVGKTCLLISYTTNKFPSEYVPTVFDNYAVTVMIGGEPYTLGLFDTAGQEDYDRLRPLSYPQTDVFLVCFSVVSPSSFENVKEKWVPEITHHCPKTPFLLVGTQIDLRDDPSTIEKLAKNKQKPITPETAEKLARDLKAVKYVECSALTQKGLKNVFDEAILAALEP
T2 sequence (P60953 other isoform, or with tags, fused parts or gaps with the stated changes): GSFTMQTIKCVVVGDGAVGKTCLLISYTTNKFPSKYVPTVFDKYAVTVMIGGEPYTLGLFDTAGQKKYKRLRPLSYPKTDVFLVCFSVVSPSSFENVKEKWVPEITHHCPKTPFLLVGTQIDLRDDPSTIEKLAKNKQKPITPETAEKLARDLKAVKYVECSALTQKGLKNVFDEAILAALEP

B1: Truncated WASP GBD (residues 238-298) with the BR segment deleted (domain or fragment, human)
chain: GSIGAPSGFKHVSHVGWDPQNGFDVNNLDPDLRSLFSRAGISEAQLTDAETSKLIYDFIEDQG
notes: two extra residues (Gly-Ser) from the thrombin recognition site left at the N-terminus of GBD; also called GBDΔBR; source: E. coli Rosetta, purified (GSTrap, thrombin, 70 °C heat step, Superdex 75); not shown: GST, N-terminal, cleaved
As for B1, in experiment [1], the “fold increase in kd relative to GBDWT” value is 10 fold and the “fold weakening in binding affinity relative to GBDWT” value is 1420 fold. In addition, in experiment [2], the “fold decrease in kd relative to Cdc42WT” value is 16 fold and the “fold increase in binding affinity relative to Cdc42WT” value is around 1500 fold. For the same molecule, the on-rate (kon) in experiment [3] is 40000 M⁻¹ s⁻¹. Also, the kon in experiment [4] worked out at 4.03e+06 M⁻¹ s⁻¹.

B2: GTPase-binding domain (GBD) of the Wiskott-Aldrich Syndrome protein (WASP), wild type, residues 228-298 (domain or fragment, human)
chain: GSSGKKKISKADIGAPSGFKHVSHVGWDPQNGFDVNNLDPDLRSLFSRAGISEAQLTDAETSKLIYDFIEDQG
notes: two extra residues (Gly-Ser) from the thrombin recognition site left at the N-terminus of GBD; 15N labelled for the NMR experiment; also called GBDWT; wild-type GBD; source: E. coli Rosetta, purified (GSTrap, thrombin, 70 °C heat step, Superdex 75); not shown: GST, N-terminal, cleaved
In the case of B2, the koff in experiment [5] amounted to 0.696 ± 0.011 s⁻¹; in experiment [1] it was 0.63 s⁻¹. In experiment [6], the “fold decrease of ka at 1 M urea relative to no urea” value is 1.6 fold. This molecule also came in with a Kd in experiment [1] of 114 ± 9 nM. Further, the kon in experiment [3] amounted to 5.53e+06 M⁻¹ s⁻¹; in experiment [4] it was 2.14e+07 M⁻¹ s⁻¹.

B3: WASP GBD (residues 228-298) with Lys230Lys231Lys232 substituted by Ala (domain or fragment, human)
chain: B2 chain with K5A, K6A, K7A
notes: two extra residues (Gly-Ser) from the thrombin recognition site left at the N-terminus of GBD; 15N labelled for the NMR experiment; also called GBD3A; source: E. coli Rosetta, purified (GSTrap, thrombin, 70 °C heat step, Superdex 75); not shown: GST, N-terminal, cleaved
Take B3: in experiment [6], the “fold decrease of ka at 1 M urea relative to no urea” value is 3.1 fold. The “fold decrease of ka at 1 M urea relative to no urea” value in experiment [7] turned out to be 3.5 fold. Moreover, in experiment [1], the “fold increase in kd relative to GBDWT” value worked out at 2 fold and the “fold weakening in binding affinity relative to GBDWT” value was found to be 13 fold. In experiment [2], the “fold decrease in kd relative to Cdc42WT” value was determined as 121 fold, the “fold higher affinity than GBDWT-Cdc42WT” value is around 100 fold and the “fold increase in binding affinity relative to Cdc42WT” value was around 1500 fold. The molecule further displayed a kon in experiment [3] of 920000 M⁻¹ s⁻¹. Also, the kon in experiment [4] was 1.09e+07 M⁻¹ s⁻¹. In addition, in experiment [8], the “fold decrease of ka at 2 M urea relative to no urea” value came out at 9.2 fold.

B4: WASP GBD (residues 228-298) with Lys230Lys231Lys232 changed to Glu (domain or fragment, human)
chain: B2 chain with K5E, K6E, K7E
notes: two extra residues (Gly-Ser) from the thrombin recognition site left at the N-terminus of GBD; also called GBD3E; source: E. coli Rosetta, purified (GSTrap, thrombin, 70 °C heat step, Superdex 75); not shown: GST, N-terminal, cleaved
As for B4, the “fold increase in kd relative to GBDWT” value in experiment [1] worked out at 7 fold. Also, in experiment [3], the kon was 97000 M⁻¹ s⁻¹.

B5: WASP GBD (residues 228-298) with the 3A mutations plus Arg273 to Glu and Gly275 to Asp (domain or fragment, human)
chain: B2 chain with K5A, K6A, K7A, R48E, G50D
notes: two extra residues (Gly-Ser) from the thrombin recognition site left at the N-terminus of GBD; also called GBD_(3A/ED); source: E. coli Rosetta, purified (GSTrap, thrombin, 70 °C heat step, Superdex 75); not shown: GST, N-terminal, cleaved
As to B5, the “fold increase of Kd relative to GBD3A” value in experiment [1] worked out at 3.7 fold. The “fold reduction of ka relative to GBD3A” value in experiment [3] was determined as 2.5 fold.
